This note sets out measurements from PMC5457145 (Science Advances, 2017).

Ends that are not written are not given here.

Data set [1] deals with T1, His6Sumo-TPR2 TPD N176H/K71A (rice, UniProt Q5NBT9 1-209, N176H | K71A).
T1 sequence (looked up): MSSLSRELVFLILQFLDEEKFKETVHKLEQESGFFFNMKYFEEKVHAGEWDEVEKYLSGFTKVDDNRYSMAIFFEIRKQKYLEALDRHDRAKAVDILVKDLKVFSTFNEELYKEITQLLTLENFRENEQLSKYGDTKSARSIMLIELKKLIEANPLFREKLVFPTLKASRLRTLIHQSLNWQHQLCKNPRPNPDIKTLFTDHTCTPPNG
Briefly: AlphaScreen or HTRF. Background: Bead proximity is the source of the signal in Alpha formats.

Data set [2] has as its target T2, His6Sumo-tagged TPR2 TPD (rice, UniProt Q5NBT9 1-209).
T2 sequence (looked up): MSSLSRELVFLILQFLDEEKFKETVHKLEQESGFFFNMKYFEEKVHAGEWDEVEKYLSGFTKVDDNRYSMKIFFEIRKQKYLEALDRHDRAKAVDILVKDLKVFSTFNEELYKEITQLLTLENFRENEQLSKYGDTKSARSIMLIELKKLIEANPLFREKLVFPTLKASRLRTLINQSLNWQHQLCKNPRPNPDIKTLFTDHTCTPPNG
Put plainly: AlphaScreen or HTRF.

In data set [3] the target is T3, His6Sumo-TPR2 TPD L179A/I195A (rice, UniProt Q5NBT9 1-209, L179A | I195A).
T3 sequence (looked up): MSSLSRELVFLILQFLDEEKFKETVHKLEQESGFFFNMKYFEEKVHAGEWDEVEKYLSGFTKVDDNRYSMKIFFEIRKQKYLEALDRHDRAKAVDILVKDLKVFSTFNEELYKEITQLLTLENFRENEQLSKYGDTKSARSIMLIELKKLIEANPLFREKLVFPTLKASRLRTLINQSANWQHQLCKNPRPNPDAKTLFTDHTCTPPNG
Briefly: AlphaScreen or HTRF.

For data set [4], the target named is T4, His6Sumo-TPR2 TPD L111A/L130A (rice, UniProt Q5NBT9 1-209, L111A | L130A).
T4 sequence (looked up): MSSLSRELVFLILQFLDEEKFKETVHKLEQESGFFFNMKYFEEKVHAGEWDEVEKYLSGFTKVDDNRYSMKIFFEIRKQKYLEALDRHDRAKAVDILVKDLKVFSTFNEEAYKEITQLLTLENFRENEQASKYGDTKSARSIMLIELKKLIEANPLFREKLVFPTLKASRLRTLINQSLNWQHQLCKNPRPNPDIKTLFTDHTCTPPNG
Put plainly: AlphaScreen or HTRF.

The target of data set [5] is T5, His6Sumo-TPR2 TPD N176H/Y68R (rice, UniProt Q5NBT9 1-209, N176H | Y68R).
T5 sequence (looked up): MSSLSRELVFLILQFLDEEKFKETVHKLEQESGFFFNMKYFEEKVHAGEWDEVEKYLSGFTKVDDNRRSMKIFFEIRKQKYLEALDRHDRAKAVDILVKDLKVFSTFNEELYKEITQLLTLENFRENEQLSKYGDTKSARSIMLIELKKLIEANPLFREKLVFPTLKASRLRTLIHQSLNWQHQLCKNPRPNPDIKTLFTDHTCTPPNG
Briefly: AlphaScreen or HTRF.

In data set [6] the target is T6, His6Sumo-TPR2 TPD W181A (rice, UniProt Q5NBT9 1-209, W181A).
T6 sequence (looked up): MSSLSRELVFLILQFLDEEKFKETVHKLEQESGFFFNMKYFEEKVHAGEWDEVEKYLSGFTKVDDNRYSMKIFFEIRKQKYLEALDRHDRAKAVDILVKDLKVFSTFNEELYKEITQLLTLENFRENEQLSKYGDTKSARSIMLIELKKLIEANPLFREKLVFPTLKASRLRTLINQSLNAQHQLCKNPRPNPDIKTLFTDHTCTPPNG
Briefly: AlphaScreen or HTRF.

Data set [7] concerns the target T7, His6Sumo-TPR2 TPD N180A (rice, UniProt Q5NBT9 1-209, N180A).
T7 sequence (looked up): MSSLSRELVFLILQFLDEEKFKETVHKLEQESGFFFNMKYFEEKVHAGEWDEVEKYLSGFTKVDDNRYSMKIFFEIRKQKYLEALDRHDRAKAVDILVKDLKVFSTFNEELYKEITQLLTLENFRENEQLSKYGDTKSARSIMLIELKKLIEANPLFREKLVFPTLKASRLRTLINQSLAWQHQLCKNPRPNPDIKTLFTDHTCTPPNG
Put plainly: AlphaScreen or HTRF.

The target of data set [8] is T8, His6Sumo-TPR2 TPD N176H/Y68A (rice, UniProt Q5NBT9 1-209, N176H | Y68A).
T8 sequence (looked up): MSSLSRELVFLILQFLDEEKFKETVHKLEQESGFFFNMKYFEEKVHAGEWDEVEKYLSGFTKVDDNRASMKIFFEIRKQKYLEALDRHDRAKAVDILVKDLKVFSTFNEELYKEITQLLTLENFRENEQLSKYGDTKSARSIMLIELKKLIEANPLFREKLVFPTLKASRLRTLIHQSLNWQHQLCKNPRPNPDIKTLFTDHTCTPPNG
Put plainly: AlphaScreen or HTRF.

In data set [9] the target is T9, His6Sumo-TPR2 TPD L198A (rice, UniProt Q5NBT9 1-209, L198A).
T9 sequence (looked up): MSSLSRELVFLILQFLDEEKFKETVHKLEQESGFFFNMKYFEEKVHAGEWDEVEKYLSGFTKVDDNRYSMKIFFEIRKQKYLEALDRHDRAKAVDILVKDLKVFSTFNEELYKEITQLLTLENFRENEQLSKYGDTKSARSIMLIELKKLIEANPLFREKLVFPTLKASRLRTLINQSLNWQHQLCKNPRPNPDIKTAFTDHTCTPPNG
Put plainly: AlphaScreen or HTRF.

Data set [10] has as its target T10, His6Sumo-TPR2 TPD N176H/R67A (rice, UniProt Q5NBT9 1-209, N176H | R67A).
T10 sequence (looked up): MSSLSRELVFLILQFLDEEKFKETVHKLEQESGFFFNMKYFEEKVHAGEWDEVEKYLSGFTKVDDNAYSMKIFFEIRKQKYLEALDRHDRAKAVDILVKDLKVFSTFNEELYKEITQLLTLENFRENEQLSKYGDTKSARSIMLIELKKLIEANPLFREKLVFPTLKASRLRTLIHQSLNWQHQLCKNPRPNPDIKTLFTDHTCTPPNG
Briefly: AlphaScreen or HTRF.

Data set [11] deals with the molecule itself. Briefly: crystal structure.
Data set [12] concerns the target T2, His6Sumo-tagged TPR2 TPD. Briefly: AlphaScreen or HTRF. The source holds these as a separate data set.

In the case of DNLIYLDLNLQDWDD (peptide, UniProt Q2RBP2 794-808, looked up, also: biotinylated, site not given here) [Biotinylated D53 EAR-2 peptide, D53(794–808)], the binding result in data set [1], in data set [2], in data set [3], in [4], in data set [5] and in [6] was “binds” in each case. In addition, the binding result in data set [7], in data set [8], in [9] and in data set [10] was “binds” in each case.

B1: TPR2 TPD, TPR2(1–209), untagged (domain or fragment, rice, UniProt Q5NBT9 1-209, looked up)
chain: MSSLSRELVFLILQFLDEEKFKETVHKLEQESGFFFNMKYFEEKVHAGEWDEVEKYLSGFTKVDDNRYSMKIFFEIRKQKYLEALDRHDRAKAVDILVKDLKVFSTFNEELYKEITQLLTLENFRENEQLSKYGDTKSARSIMLIELKKLIEANPLFREKLVFPTLKASRLRTLINQSLNWQHQLCKNPRPNPDIKTLFTDHTCTPPNG
With B1, in [11], the stoichiometry N (in general, a count of units in the complex or per binding partner) amounted to 4.

B2: TPR2 TPD L111A/L130A, untagged (domain or fragment, rice, UniProt Q5NBT9 1-209, looked up)
chain: MSSLSRELVFLILQFLDEEKFKETVHKLEQESGFFFNMKYFEEKVHAGEWDEVEKYLSGFTKVDDNRYSMKIFFEIRKQKYLEALDRHDRAKAVDILVKDLKVFSTFNEEAYKEITQLLTLENFRENEQASKYGDTKSARSIMLIELKKLIEANPLFREKLVFPTLKASRLRTLINQSLNWQHQLCKNPRPNPDIKTLFTDHTCTPPNG
On to B2, for which the binding result in data set [11] was “binds”.

With DNLIYADLNLQ (peptide, UniProt Q2RBP2 794-804, looked up) [D53 EAR-2 peptide L799A], half-maximal inhibition in data set [12] (IC50) required 14.3 µM.

As to DNLIYLDLNLA (peptide, UniProt Q2RBP2 794-804, looked up) [D53 EAR-2 peptide Q804A], in [12], the “fold increase of the strength of the interaction against wild-type EAR-2” value was over 3 fold.
